B1: FY1 IgG (antibody, V domains shown)
VH: QVQLQESGPGLVKPSQTLSLTCAISGDSVSSNNAVWNWIRQSPSRGLEWLGRTYYRSKWYNDYAESVKSRITVNPDTSKNQFSLHLKSVTPEDTAVFYCVRSGHITVFGVNVDAFDMWGQGTMVTVSS
VL: DIQMTQSPSSLSASVGDRVTITCRTSQSLSSYLHWYQQKPGKAPKLLIYAASSLQSGVPSRFSGSGSGTDFTLTISSLQPEDFATYYCQQSRTFGQGTKVEIK
B2: GL20 IgG (antibody, V domains shown)
VH: QVQLQQSGPGLVKPSQTLSLTCAISGDSVSSYNAVWNWIRQSPSRGLEWLGRTYYRSGWYNDYAESVKSRITINPDTSKNQFSLQLNSVTPEDTAVYYCARSGHITVFGVNVDAFDMWGQGTMVTVSS
VL: DIQMTQSPSSLSASVGDRVTITCRTSQSLSSYTHWYQQKPGKAPKLLIYAASSRGSGVPSRFSGSGSGTDFTLTISSLQPEDFATYYCQQSRTFGQGTKVEIK
B3: FY1/94 BiS2 100/44 (bispecific antibody)
light: DIQMTQSPSSLSASVGDRVTITCRTSQSLSSYLHWYQQKPGKAPKLLIYAASSLQSGVPSRFSGSGSGTDFTLTISSLQPEDFATYYCQQSRTFGQGTKVEIKRTVAAPSVFIFPPSDEQLKSGTASVVCLLNNFYPREAKVQWKVDNALQSGNSQESVTEQDSKDSTYSLSSTLTLSKADYEKHKVYACEVTHQGLSSPVTKSFNRGEC
heavy: not shown
B4: FY1/94 BiS4 100/44 (bispecific antibody)
light: DIQMTQSPSSLSASVGDRVTITCRTSQSLSSYLHWYQQKPGKAPKLLIYAASSLQSGVPSRFSGSGSGTDFTLTISSLQPEDFATYYCQQSRTFGQGTKVEIKRTVAAPSVFIFPPSDEQLKSGTASVVCLLNNFYPREAKVQWKVDNALQSGNSQESVTEQDSKDSTYSLSSTLTLSKADYEKHKVYACEVTHQGLSSPVTKSFNRGEC
heavy: not shown
B5: FY1/39 BiS1 100/44 (bispecific antibody)
light: DIQMTQSPSSVSASVGDRVTITCRASQDISTWLAWYQQKPGKAPKLLIYAASSLQSGVPSRFSGSGSGTDFTLTISSLQPEDFATYFCQQANSFPPTFGCGTKLEIKGGGGSGGGGSGGGGSGGGGSEVQLVVSGGGLVKPGGSLRLSCAASGLSFLNAWMSWVRQAPGKCLEWVGRIKSNTDGGTTDYAAPVKGRFSISRDDSKNMLFLHMSSLRTEDTAVYYCATDGPYSDDFRSGYAARYRYFGMDVWGQGTTVTVSSGGGGSGGGGSDIQMTQSPSSLSASVGDRVTITCRTSQSLSSYLHWYQQKPGKAPKLLIYAASSLQSGVPSRFSGSGSGTDFTLTISSLQPEDFATYYCQQSRTFGQGTKVEIKRTVAAPSVFIFPPSDEQLKSGTASVVCLLNNFYPREAKVQWKVDNALQSGNSQESVTEQDSKDSTYSLSSTLTLSKADYEKHKVYACEVTHQGLSSPVTKSFNRGEC
heavy: not shown
B6: FY1/39 BiS2 100/44 (bispecific antibody)
light: DIQMTQSPSSLSASVGDRVTITCRTSQSLSSYLHWYQQKPGKAPKLLIYAASSLQSGVPSRFSGSGSGTDFTLTISSLQPEDFATYYCQQSRTFGQGTKVEIKRTVAAPSVFIFPPSDEQLKSGTASVVCLLNNFYPREAKVQWKVDNALQSGNSQESVTEQDSKDSTYSLSSTLTLSKADYEKHKVYACEVTHQGLSSPVTKSFNRGEC
heavy: not shown
B7: FY1/39 BiS3 100/44 (bispecific antibody)
light: DIQMTQSPSSLSASVGDRVTITCRTSQSLSSYLHWYQQKPGKAPKLLIYAASSLQSGVPSRFSGSGSGTDFTLTISSLQPEDFATYYCQQSRTFGQGTKVEIKRTVAAPSVFIFPPSDEQLKSGTASVVCLLNNFYPREAKVQWKVDNALQSGNSQESVTEQDSKDSTYSLSSTLTLSKADYEKHKVYACEVTHQGLSSPVTKSFNRGEC
heavy: not shown
B8: FY1/39 BiS4 100/44 (bispecific antibody)
light: DIQMTQSPSSLSASVGDRVTITCRTSQSLSSYLHWYQQKPGKAPKLLIYAASSLQSGVPSRFSGSGSGTDFTLTISSLQPEDFATYYCQQSRTFGQGTKVEIKRTVAAPSVFIFPPSDEQLKSGTASVVCLLNNFYPREAKVQWKVDNALQSGNSQESVTEQDSKDSTYSLSSTLTLSKADYEKHKVYACEVTHQGLSSPVTKSFNRGEC
heavy: not shown
B9: FY1/39 BiS4 43/105 (bispecific antibody)
light: DIQMTQSPSSLSASVGDRVTITCRTSQSLSSYLHWYQQKPGKAPKLLIYAASSLQSGVPSRFSGSGSGTDFTLTISSLQPEDFATYYCQQSRTFGQGTKVEIKRTVAAPSVFIFPPSDEQLKSGTASVVCLLNNFYPREAKVQWKVDNALQSGNSQESVTEQDSKDSTYSLSSTLTLSKADYEKHKVYACEVTHQGLSSPVTKSFNRGEC
heavy: not shown
B10: GL20/39 BiS4 100/44 (bispecific antibody)
light: DIQMTQSPSSLSASVGDRVTITCRTSQSLSSYTHWYQQKPGKAPKLLIYAASSRGSGVPSRFSGSGSGTDFTLTISSLQPEDFATYYCQQSRTFGQGTKVEIKRTVAAPSVFIFPPSDEQLKSGTASVVCLLNNFYPREAKVQWKVDNALQSGNSQESVTEQDSKDSTYSLSSTLTLSKADYEKHKVYACEVTHQGLSSPVTKSFNRGEC
heavy: not shown
B11: GL20/39FTL BiS4 43/105 (bispecific antibody)
light: DIQMTQSPSSLSASVGDRVTITCRTSQSLSSYTHWYQQKPGKAPKLLIYAASSRGSGVPSRFSGSGSGTDFTLTISSLQPEDFATYYCQQSRTFGQGTKVEIKRTVAAPSVFIFPPSDEQLKSGTASVVCLLNNFYPREAKVQWKVDNALQSGNSQESVTEQDSKDSTYSLSSTLTLSKADYEKHKVYACEVTHQGLSSPVTKSFNRGEC
heavy: not shown
B12: GL20/39FTL BiS4 100/44 (bispecific antibody)
light: DIQMTQSPSSLSASVGDRVTITCRTSQSLSSYTHWYQQKPGKAPKLLIYAASSRGSGVPSRFSGSGSGTDFTLTISSLQPEDFATYYCQQSRTFGQGTKVEIK
heavy (part 1 of 2): QVQLQQSGPGLVKPSQTLSLTCAISGDSVSSYNAVWNWIRQSPSRGLEWLGRTYYRSGWYNDYAESVKSRITINPDTSKNQFSLQLNSVTPEDTAVYYCARSGHITVFGVNVDAFDMWGQGTMVTVSS
heavy (part 2 of 2): DIQMTQSPSSVSASVGDRVTITCRASQDISTWLAWYQQKPGKAPKLLIYAASSLQSGVPSRFSGSGSGTDFTLTISSLQPEDFATYYCQQANSFPPTFGCGTKLEIKGGGGSGGGGSGGGGSGGGGSEVQLVESGGGLVKPGGSLRLSCAASGFTFLNAWMSWVRQAPGKCLEWVGRIKSNTDGGTTDYAAPVKGRFTISRDDSKNTLYLQMSSLKTEDTAVYYCTTDGPYSDDFRSGYAARYRYFGMDVWGQGTTVTVSS
B13: FBD94 IgG (antibody, V domains shown)
VH: EVQLVESGGGLVQPGRSLRLSCAVSGFIFEDYAINWVRQAPGKGLEWVSIISWDSGRIGYADSVRGRFTISRDNAKNSSFLQMNSLRPEDTAVYYCVKDMLAYYYDGSGIRYNLYGMDVWGQGTTVTVSS
VL: EIVLTQSPATLSLSPGERATLSCRASRSITTFLAWYQQKPGQAPRLLIYDASNRATGVPARFSGSGSGTDFTLTINSLEPDDFAIYYCQQRDHWPPIFGQGTRLEIK
B14: FBC39 IgG (antibody, V domains shown)
VH: EVQLVVSGGGLVKPGGSLRLSCAASGLSFLNAWMSWVRQAPGKGLEWVGRIKSNTDGGTTDYAAPVKGRFSISRDDSKNMLFLHMSSLRTEDTAVYYCATDGPYSDDFRSGYAARYRYFGMDVWGQGTTVTVSS
VL: DIQMTQSPSSVSASVGDRVTITCRASQDISTWLAWYQQKPGKAPKLLIYAASSLQSGVPSRFSGSGSGTDFTLTISSLQPEDFATYFCQQANSFPPTFGQGTKLEIK

Each binder was assayed against recombinant HA derived from A/California/07/2009 H1N1 (influenza A virus, UniProt P26140 18-529) (assay: ELISA, rHA coated on plate).
Binder B1 has an EC50 of 2.15 nM.
In the case of B2, the EC50 is reported as 1.99 nM.
B3 was tested, and the EC50 was 6.83 nM.
In the case of B4, the EC50 is reported as 1.53 nM.
B5 was tested, and the EC50 was 6.85 nM.
Work on B6 yielded an EC50 of 3.97 nM.
For B7, the EC50 was 1.52 nM.
B8 gave an EC50 of 1.19 nM.
For B9, the EC50 was 0.78 nM.
B10 was tested, and the EC50 was 0.95 nM.
For B11, the EC50 was 0.86 nM.
B12 gave an EC50 of 0.99 nM.
B13: no binding.
B14: no binding.

Reference: patent US20180155413A1 (AstraZeneca / MedImmune, published 2018)
